In the supplement of paper PMC9233669 one finds self-aminoacylation data, which are given here for 54 sequences.

The test system of this series is biotinyl-Phe-oxazolone. The series is described as follows: self-aminoacylation, catalytic enhancement (BFO) (fold over background); higher = more active; k-Seq, kA / k0A0; sequences stand for … in GGGAAUGGAUCCACAUCUACGAAUUC…UUCACUGCAGACUUGACGAAGCUG
In a few lines:
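Each biotinyl-aminoacyl-oxazolone, at 2–1250 μM, was incubated with mutagenized RNA pools (0.43 μM) carrying a 21-nt variable region. The 50 μL reactions contained HEPES/NaCl/KCl/MgCl2/CaCl2 buffer with 5% acetonitrile at pH 6.9–7.0 and ran for 90 minutes at room temperature. After streptavidin capture, RNA was measured by qPCR in triplicate and by Illumina sequencing, and catalytic enhancement was calculated as median kA over the uncatalyzed rate from a pseudo-first-order fit of per-sequence fraction reacted.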

Variants at the floor of the assay were thinned out.

As for “AAGCUUGCUAAUAGUCUCAAG [Fam3.1 aminoacylation ribozyme variant]”, the self-aminoacylation was found to be 2.19.

For “AAGGUUGCUGAUAGUCGCAAG [Fam3.1 aminoacylation ribozyme variant]”, the self-aminoacylation came out at 2.05.

With “AAGUAGGCUAAUAGUCGCAAG [Fam3.1 aminoacylation ribozyme variant]”, the self-aminoacylation was 3.24.

Regarding “AAGUCUGCUAAGAGUCGCAAG [Fam3.1 aminoacylation ribozyme variant]”, the self-aminoacylation is 4.79.

Take “AAGUCUGCUAUUAGUCGCAAG [Fam3.1 aminoacylation ribozyme variant]”: the self-aminoacylation came to 4.82.

As to “AAGUUAGCUAAGAGUCGCAAG [Fam3.1 aminoacylation ribozyme variant]”, the self-aminoacylation stood at 2.38.

On to “AAGUUAGCUAAUAGUCGAAAG [Fam3.1 aminoacylation ribozyme variant]”, for which the self-aminoacylation came to 3.83.

Turning to “AAGUUAGCUGAUAGUCGCAAG [Fam3.1 aminoacylation ribozyme variant]”, the self-aminoacylation was determined as 2.26.

As to “AAGUUCGCUGAUAGUCGCAAG [Fam3.1 aminoacylation ribozyme variant]”, the self-aminoacylation came out at 5.75.

Regarding “AAGUUGUCUAAUAGUCGCAAG [Fam3.1 aminoacylation ribozyme variant]”, the self-aminoacylation turned out to be 2.35.

On to “AAGUUUACCAAUAGUCGCAAG [Fam3.1 aminoacylation ribozyme variant]”, for which the self-aminoacylation was found to be 2.58.

For “AAGUUUACUAAUAGCCGCAAG [Fam3.1 aminoacylation ribozyme variant]”, the self-aminoacylation came out at 2.1.

Take “AAGUUUACUAAUAGGCGCAAG [Fam3.1 aminoacylation ribozyme variant]”: the self-aminoacylation stood at 2.02.

For “AAGUUUGCGAAUAGUGGCAAG [Fam3.1 aminoacylation ribozyme variant]”, the self-aminoacylation was found to be 2.12.

On to “AAGUUUGCUAAUAGUAGCAAA [Fam3.1 aminoacylation ribozyme variant]”, for which the self-aminoacylation stood at 2.93.

“AAGUUUGCUAAUCGUCGCAAG [Fam3.1 aminoacylation ribozyme variant]”: the self-aminoacylation turned out to be 3.12.

In the case of “AAGUUUGCUAAUGGUCGCACG [Fam3.1 aminoacylation ribozyme variant]”, the self-aminoacylation turned out to be 2.96.

With “AAGUUUGCUCAUCGUCGCAAG [Fam3.1 aminoacylation ribozyme variant]”, the self-aminoacylation amounted to 3.33.

For “AAGUUUGCUUAUAGUCGCAGG [Fam3.1 aminoacylation ribozyme variant]”, the self-aminoacylation was 2.26.

As to “AAGUUUGUUAAUAGUCGCAAG [Fam3.1 aminoacylation ribozyme variant]”, the self-aminoacylation amounted to 2.01.

On to “AAGUUUUCUAAUAGUCGCAAC [Fam3.1 aminoacylation ribozyme variant]”, for which the self-aminoacylation amounted to 2.43.

For the sequence “AAGUUUUCUAAUUGUCGCAAG [Fam3.1 aminoacylation ribozyme variant]”, the self-aminoacylation stood at 2.33.

Consider “AAGUUUUCUUAUAGUCGCAAG [Fam3.1 aminoacylation ribozyme variant]”, for which the self-aminoacylation was 3.91.

Consider “AAUUUUGCUAAGAGUCGCAAG [Fam3.1 aminoacylation ribozyme variant]”, for which the self-aminoacylation stood at 2.23.

For “AAUUUUGCUAAUAGUCGCCAG [Fam3.1 aminoacylation ribozyme variant]”, the self-aminoacylation amounted to 2.69.

Regarding “ACGUUUGCUAAUGGUCGCAAG [Fam3.1 aminoacylation ribozyme variant]”, the self-aminoacylation was found to be 3.94.

Turning to “AGGUUUGCUAAUAGUCGCAUG [Fam3.1 aminoacylation ribozyme variant]”, the self-aminoacylation was 3.56.

“AUACGUCAAACAAUCGGUCUG [Fam1A.1 aminoacylation ribozyme variant]”: the self-aminoacylation turned out to be 5.56.

Regarding “AUCCACCUAGGUCAUCGUGUG [Fam2.2 aminoacylation ribozyme variant]”, the self-aminoacylation stood at 3.96.

As to “AUUACCCGGGUCGUCGAGUGA [Fam2.1 aminoacylation ribozyme variant]”, the self-aminoacylation was determined as 3.86.

As for “AUUACCCUGGGCAUCGUGUGA [Fam2.1 aminoacylation ribozyme variant]”, the self-aminoacylation turned out to be 7.88.

On to “AUUACCCUGGUCAACGUGUGA [Fam2.1 aminoacylation ribozyme variant]”, for which the self-aminoacylation worked out at 4.08.

On to “AUUACCCUGGUCGUCGAGGGA [Fam2.1 aminoacylation ribozyme variant]”, for which the self-aminoacylation is 6.85.

As for “AUUACCCUGUUCAUCAAGUGA [Fam2.1 aminoacylation ribozyme variant]”, the self-aminoacylation was 2.65.

In the case of “AUUAUCCUGGUCAUCGAGUUA [Fam2.1 aminoacylation ribozyme variant]”, the self-aminoacylation turned out to be 2.02.

Regarding “AUUCACCAAGGUCAUCGUGUG [Fam2.2 aminoacylation ribozyme variant]”, the self-aminoacylation came to 8.03.

Turning to “AUUCACCGAGGUCAUCGUGUG [Fam2.2 aminoacylation ribozyme variant]”, the self-aminoacylation worked out at 6.45.

Take “AUUCACCUAGGACAUCGUGUG [Fam2.2 aminoacylation ribozyme variant]”: the self-aminoacylation was determined as 3.71.

For “AUUCACCUAGGUCACAGGGUG [Fam2.2 aminoacylation ribozyme variant]”, the self-aminoacylation was 5.68.

Regarding “AUUCACCUAGGUCACCGGAUG [Fam2.2 aminoacylation ribozyme variant]”, the self-aminoacylation came out at 2.86.

With “AUUCACCUAGGUCAUUGGUUG [Fam2.2 aminoacylation ribozyme variant]”, the self-aminoacylation is 2.3.

Regarding “AUUCACCUAGGUCGUCGGUUG [Fam2.2 aminoacylation ribozyme variant]”, the self-aminoacylation was 4.19.

“AUUCACCUAGGUCUUCGGGAG [Fam2.2 aminoacylation ribozyme variant]”: the self-aminoacylation was 4.51.

Consider “AUUCAGCUAGGUCAUCGUGUG [Fam2.2 aminoacylation ribozyme variant]”, for which the self-aminoacylation is 3.57.

Regarding “AUUCAUCUAGGUCAUCGGCUG [Fam2.2 aminoacylation ribozyme variant]”, the self-aminoacylation was found to be 4.5.

“CAACUGCAAACAAUCGGUCUG [Fam1A.1 aminoacylation ribozyme variant]”: the self-aminoacylation was 4.06.

For the sequence “CAGUUUGCUAAUAGUCGAAAG [Fam3.1 aminoacylation ribozyme variant]”, the self-aminoacylation was 2.53.

For “CCACACUUCAAGAAAUCAGUC [Fam1B.1 aminoacylation ribozyme variant]”, the self-aminoacylation came to 4.56.

For “CCACACUUCAAGCGAUGGGUC [Fam1B.1 aminoacylation ribozyme variant]”, the self-aminoacylation turned out to be 3.56.

With “CCACACUUCAAGCUAUCGCUC [Fam1B.1 aminoacylation ribozyme variant]”, the self-aminoacylation came out at 2.03.

For “CCACACUUCACGCAUUCGGUC [Fam1B.1 aminoacylation ribozyme variant]”, the self-aminoacylation stood at 2.45.

With “CCACUUCAAACAACCGGUCUG [Fam1A.1 aminoacylation ribozyme variant]”, the self-aminoacylation was found to be 2.13.

Regarding “CGACUUCAGACAAUCGGUCUG [Fam1A.1 aminoacylation ribozyme variant]”, the self-aminoacylation was found to be 3.95.

In the case of “CUAAUUCAAACAAUCGGUCGG [Fam1A.1 aminoacylation ribozyme variant]”, the self-aminoacylation turned out to be 2.14.
